This note sets out measurements from the DeepSol protein solubility set.

The nature of this data set: soluble on expression in E. coli; label from the status in PepcDB or PDB records.
In the case of “MGHHHHHHSHMGDSRRDVLHEPAIALLSSPQTQSRLQIDAFIARRCWGSQWDITGYIHQQDFPTAVFIGFSNEFNICIPHPFTEWLQCVRKYSQSWGVRKGQRHIRYGMCSERTHHLSRTYSSLLEREEKLAFYGVLTMCQIWSET”, the “soluble on expression in E. coli” value was “not soluble”.

In the case of “MGHHHHHHSHMIKYYNRKTKQYEIEKVAGENYLNWTYSSPIGMSFLEALIKKKAFSSIYGSFCDSKISKGKVKKFIDSFDIDILESEKKPEAFKSFNDFFTRKLTKEARPFSTNKEILISPGDGRLLVYENIDLDNLVEIKGMGYSLKELIKDEKISSKYKNGICMILRLCPTDYHRFHFVDSGVCSATSKIKGSYYSVNPIALNKVKRLFCENKREWSILKSDNFKDILYIEVGATCVGSIIQTYKENTKVNKGDEKGYFKFGGSTVVLFFEKDSVKIDEDILEQTRLGYETKVFMGESIGKK”, the “soluble on expression in E. coli” value is “soluble”.

For “MGHHHHHHSHMKEDKEVQTGYMNAQIEIIPCKICGDKSSGIHYGVITCEGCKGFFRRSQQSNATYSCPRQKNCLIDRTSRNRCQHCRLQKCLAVGMSRDAVKFGRMSKKQRDSLYAEVQKHRMQQQQRDHQQQPG”, the “soluble on expression in E. coli” value was “soluble”.

“MGHHHHHHSHMKNLVLKIISGSFPPVSLHYSYDLRSLVSQLFKRNPRDRPSVNSILEKGFIAKRIEKFLSPQLIAEEFCLKTFSKFGSQPIPAKRPASGQNSISVMPAQKITKPAAKYGIPLAYKKYGDKKLHEKKPLQKHKQAHQTPEKRVNTGEERRKISEEAARKRRLEFIEKEKKQKDQIISLMKAEQMKRQEKERLERINRAREQGWRNVLSAGGSGEVKAPFLGSGGTIAPSSFSSRGQYEHYHAIFDQMQQQRAEDNEAKWKREIYGRGLPERGILPGVRPGFPYGAAGHHHFPDADDIRKTLKRLKAVSKQANANRLDCDDP”: the “soluble on expression in E. coli” value was “not soluble”.

Consider “MGHHHHHHSHMKPNVGQGSTSVQTAMESELGESSATINKRLCKSTIELSENSLLPASSMLTGTQSLLQPHLERVAIDALQLCCLLLPPPNRRKLQLLMRMISRMSQNVDMPKLHDAMGTRSLMIHTFSRCVLCCAEEVDLDELLAGRLVSFLMDHHQEILQVPSYLQTAVEKHLDYLKKGHIENPGDGLFAPLPTYPYCKQISAQEFDEQKVSTSQAAIAELLENIIKNRSLPLKEKRKKLKQFQKEYPLIYQKRFPTTESEAALFGDKPTIKQPMLILRKPKFRSLR”, for which the “soluble on expression in E. coli” value was “not soluble”.

“MGHHHHHHSHMLFIDNQNINDPRINLAIEEYCVKHLDPEQQYLLFYVNQPSIIIGKNQNTIEEINTKYVEENGIIVVRRLSGGGAVYHDLGNLNFSFITKDDGDSFHNFKKFTEPVIQALHQLGVEAELSGRNDIVVDGRKISGNAQFATKGRIFSHGTLMFDSAIDHVVSALKVKKDKIESKGIKSIRSRVANISEFLDDKMTTEEFRSHLLRHIFNTNDVGNVPEYKLTEKDWETIHQISKERYQNWDWNYGRSPKFNLNHSKRYPVGSIDLHLEVKKGKIEDCKIFGDFFGVGDVSEIENLLVGKQYERSVIADVLEGVNLKHYFGNITKEDFLDLIY”: the “soluble on expression in E. coli” value is “not soluble”.

For the sequence “MGHHHHHHSHMNGEAICSALPTIPYHKLADLRYLSRGASGTVSSARHADWRVQVAVKHLHIHTPLLDSERKDVLREAEILHKARFSYILPILGICNEPEFLGIVTEYMPNGSLNELLHRKTEYPDVAWPLRFRILHEIALGVNYLHNMTPPLLHHDLKTQNILLDNEFHVKIADFGLSKWRMMSLSQS”, the “soluble on expression in E. coli” value is recorded as “not soluble”.

Regarding “MGHHHHHHSHMQVTITLTSPIIREENMREGDVTSGMVKDPPDVLDRQKCLDALAALRHAKWFQARANGLQSCVIIIRILRDLCQRVPTWSDFPSWAMELLVEKAISSASSPQSPGDALRRVFECISSGIILKGSPGLLDPCEKDPFDTLATMTDQQREDITSSAQFALRLLAFRQIHKVLGMDPLPQMSQRFNIHNNRKRRRDSDGVDGFEAEGKKDKKDYDNF”, the “soluble on expression in E. coli” value was “not soluble”.

Regarding “MGHHHHHHSHMRQRLLPSVTSLLLVALLFPGSSQARHVNHSATEALGELRERAPGQGTNGFQLLRHAVKRDLLPPRTPPYQGDVPPGIRNTICRMQQGICRLFFCHSGEKKRDICSDPWNRCCVSNTDEEGKEKPEMDGRSGI”, the “soluble on expression in E. coli” value was “not soluble”.

Take “MGHHHHHHSHMRTYSDKNELKEEVLKSYKKYIAEFNDIPEKLKDLRIDEVDRTPAENLAYQVGWTTLILKWESDEQSGLEVKTPTETFKWNQLGELYQHFTETYASLTIKELTAQLNDNVDAIGNMIDSMSDEVLFKPHMRNWADSATKNAVWEVYKFIHINTVAPFGTFRTKIRKWKKVALK”: the “soluble on expression in E. coli” value is listed as “soluble”.

“MGHHHHHHSHMSEESDMDKAIKETSILEEYSINWTQKLGAGISGPVRVCVKKSTQERFALKILLDRPKARNEVRLHMMCATHPNIVQIIEVFANSVQFPHESSPRARLLIVMEMMEGGELFHRISQHRHFTEKQASQVTKQIALALRHCHLLNIAHRDLKPENLLFKDNSLDAPVKLCDFGFAKIDQGDLMTPQFTPYYVAPQVLEAQRRHQKEKSGIIPTSPTPYTYNKSCDLWSLGVIIYVMLCGYPPFYSKHHSRTIPKDMRRKIMTGSFEFPEEEWSQISEMAKDVVRKLLKVKPERRLTIEGVLDHPWLNSTEALDNVLPSAQLMMDKAVVAGIQQAHAEQLANMRIQDLKVSLKPLHSVNNPILRKRKLLGTKPKDSVYIHDHENGAEDSNVALEKLRDVIAQCILPQAGENEDEKLNEVMQEAWKYNRECKLLRDTLQSFSWNGRGFTDKVDRLKLAEIVKQVIEEQTTSHESQ”: the “soluble on expression in E. coli” value is listed as “not soluble”.

Consider “MGHHHHHHSHMSEPLCTSRPVLLPLNLKNIAPGRCISLTPFGHTDNLGFQCETCTDPNLNKSIPPKLEDPAFSKNELCSVTLTFYQQAEQVIQHKQFYLSLLNLSMDAVRNSLTQPGLLYCYLVTKAFMLEGFPIFFEETNGMLGLYLVFRRDLLHLHESYLRLLIDNLGNYDISVDSVGRSYIIKLCPVGNVSRIPTIPADNVCLAVNNLDYGDDVKASWIECFNIVSRLS”, for which the “soluble on expression in E. coli” value is reported as “soluble”.

Consider “MGHHHHHHSHMSIFTPTNQIRLTNVAVVRMKRAGKRFEIACYKNKVVGWRSGVEKDLDEVLQTHSVFVNVSKGQVAKKEDLISAFGTDDQTEICKQILTKGEVQVSDKERHTQLEQMFRDIATIVADKCVNPETKRPYTVILIERAMKDIHYSVKTNKSTKQQALEVIKQLKEKMKIERAHMRLRFILPVNEGKKLKEKLKPLIKVIESEDYGQQLEIVCLIDPGCFREIDELIKKETKGKGSLEVLNLKDVEEGDEKFE”, for which the “soluble on expression in E. coli” value is given as “soluble”.

For the sequence “MGHHHHHHSHMSQQRPDRIKQMLHYLWQHRHLSTQQAMELFGYAEATVRRDFQYIVNQYPGMIRGHGCLDFDDSTDDKEYVFDVKRTLQSVAKREIAALARTMIKDGDCFFLDSGSTCLELAKCLADARVKVICNDIKIANELGCFPHVESYIIGGLIRPGYFSVGESLALEMINAFSVERAFISCDALSLETGITNATMFEVGVKTRIIQRSREVILMADHSKFDAVEPHAVATLSCIKTIISDSGLPETIAQRYQRAGCQLFLPHSIK”, the “soluble on expression in E. coli” value is on record as “soluble”.

As to “MGHHHHHHSHMSSPSRKRTIAESKKKHEEKQMKAQQLREKLREEKTLKLQKLLEREKDVRKWKEELLDQRRRMMEEKLLHAEFKREVQLQAIVKKAQEEEAKVNEIAFINTLEAQNKRHDVLSKLKEYEQRLNELQEERQRRQEEKQARDEAVQERKRALEAERQAR”, the “soluble on expression in E. coli” value was “soluble”.

In the case of “MGHHHHHHSHMSVSVHENRKSRASSGSINIYLFHKSSYADSVLTHLNLLRQQRLFTDVLLHAGNRTFPCHRAVLAACSRYFEAMFSGGLKESQDSEVNFDNSIHPEVLELLLDYAYSSRVIINEENAESLLEAGDMLEFQDIRDACAEFLEKNLHP”, the “soluble on expression in E. coli” value was “not soluble”.

Turning to “MGHHHHHHSHMTDFEDKQVANNETMEDAMNSVQEVSVGDIVKGEVLAIEDKQVVVGIEGAGVEGVVPAKELSTLPVEDVHELVKVGDVLDLVVITSIGKDKENGSYLLSKRRLDAKKVWEEIEQDFQAGKVIEAPVTNVVKGGLVVDVGVRGFVPASMVEDHFVADFSEYKGQTLAFKIIEIEPSENRLILSHKAVVEAEKESKKEELLSSLHDGDVVEGKVARLTDFGAFIDLGGVDGLVHVSEIAHQHVGKPSDALTVGEDVQVKILSINPEEGRISLSIKETLPGPWTDIETKAAAGTVLDGTVKRLTSFGAFVEVFPGVEGLVHISQISHKHIATPHEVLHEGDQVQVKVLEVNPEEHRIALSIKALEPKPESQEEPKEEQEYELPEENTGFTMGDILGDALSDAKEEE”, the “soluble on expression in E. coli” value is given as “soluble”.

With “MGHHHHHHSHMTRVKLQDGVHIIKETKEEVTPEQLKLMRTQDVKYIEMKRVAEAKKIERLKSELHLLDFQGKQQNKHVFFFDTKKEVEQFDVATHLQTAPELVDRVFNRPRIETLQKEKVKGVTNQTGLKRIAKERQKQYNCLTQRIEREKKLFVIAQKIQTRKDLMDKTQKVKVKKETVNFPAIYKFQSRRKR”, the “soluble on expression in E. coli” value was “not soluble”.

Take “MGHHHHHHSHMTSYDQIWETFLNNCETSDFDVPQQEEDIYKSIRNAILHFNNRLRDNLKADNSTETVNRELSEDDLLILAHFLRYIFLLNKKTLFENTWQPFTNDVGIKNFGTQLNSLKQSVMDQKDEIERLILNAAVDYL”: the “soluble on expression in E. coli” value was “soluble”.

Take “MGHHHHHHSHMTWKGGGGWMAAVTQGPGITWGSLLPSAVRQGEQKCKNTDVSIFLNWGVEGCLLTASKELTVEGPQCIPPLPESLSPLGPPGSQSSEETDPSCFNSCCCFSLWAGPGRGRAEQAPGGLQSQLDLAVSPAGSPADTGEVG”: the “soluble on expression in E. coli” value is “not soluble”.

As to “MGHHHHHHSHMVITIYYDVKVRFIVRGCGQYISYRCQEKRNTYFAEYWYQAQCCQYDYCNSWSSPQLQSSLPEPHDRPLALPLSDSQIQWFYQALNLSLPLPNFHAGTEPDGLDPMVTLSLNLGLSFAELRRMYLFLNSSGLLVLPQAGLLTPHPS”, the “soluble on expression in E. coli” value is “not soluble”.

Consider “MGHHHHHHSHMVPGGKPILCPRRTTAQLGPRRNPAWSLQAGRLFSTQTAEDKEEPLHSIISSTESVQGSTSKHEFQAETKKLLDIVARSLYSEKEVFIRELISNASDALEKLRHKLVSDGQALPEMEIHLQTNAEKGTITIQDTGIGMTQEELVSNLGTIARSGSKAFLDALQNQAEASSKIIGQFGVGFYSAFMVADRVEVYSRSAAPGSLGYQWLSDGSGVFEIAEASGVRTGTKIIIHLKSDCKEFSSEARVRDVVTKYSNFVSFPLYLNGRRMNTLQAIWMMDPKDVREWQHEEFYRYVAQAHDKPRYTLHYKTDAPLNIRSIFYVPDMKPSMFDVSRELGSSVALYSRKVLIQTKATDILPKWLRFIRGVVDSEDIPLNLSRELLQESALIRKLRDVLQQRLIKFFIDQSKKDAEKYAKFFEDYGLFMREGIVTATEQEVKEDIAKLLRYESSALPSGQLTSLSEYASRMRAGTRNIYYLCAPNRHLAEHSPYYEAMKKKDTEVLFCFEQFDELTLLHLREFDKKKLISVETDIVVD”, for which the “soluble on expression in E. coli” value is “soluble”.

As to “MGHHHHHHSHMVRKQSPYEDVQKQSRQHDPYKIIEPTPKKYLEGSAYEVIYNHLSYKHEILDKYIETNTAVFWIKKDDIFSVATILRHLGYECLSEMSAIDLCAKKGHFELFYQFVGFSDSCKNRRRVRVKCVLLPNESVDSLSFLYRSANWSEREAYDMLGIVFDKHPYLKRLIMPHDWVGHPLLRSYPLKGDEFAQWYEVDKIFGKEYREVVGKEQRDSARVDEKDTFNFAKIGYEQGKGEELKEVEEKHAFKKIPFVKDLHKIAPTILKKRL”, the “soluble on expression in E. coli” value is recorded as “soluble”.

As to “MGHHHHHHSHMYKGRTVLQKVVGHPSCTFLYGPPDPAVRATDPQQVAFPSPAELPDQKQLRYTEELLRHVAPGLHLELRGPQLWARRMGKCKVYWEVGGPPGSASPSTPACLLPRNCDTPIFDFRVFFQELVEFRARQRRGSPRYTIYLGFGQDLSAGRPKEKSLVLVKLEPWLCRVHLEGTQREGVSSLDSSSLSLCLSSANSLYDDIECFLMELEQPA”, the “soluble on expression in E. coli” value is recorded as “not soluble”.
